Laboratory results as given in US20030124108A1.

Molecular target: purified PLD1 (isoform not distinguished in Example 4) (human)
Assay: cell-based or functional assay

Row | Substance | activation of PLD1 at a maximally effective concentration (ARF1 4.7 M as printed) | half-maximal activation of PLD1 activity (headgroup release assay) | stimulation of PLD1 activity | activation of PLD1 at a maximally effective concentration (RhoA 3.8 M as printed) | activation of PLD1 at a maximally effective concentration (cdc42 5.5 M as printed) | activation of PLD1 at a maximally effective concentration (PMA-activated PKC- 0.043 M as printed)
1 | human ADP-ribosylation factor 1 (ARF1) (from UniProt P84077 2-181) | 49 fold | 0.2 M | 50 fold |  |  | 
2 | human RhoA with … at the amino terminus (from UniProt P61586 1-190) |  | 1 M | 10 fold | 13 fold |  | 
3 | human cdc42 with … at the amino terminus (from UniProt P60953 1-188) |  | 1 M | 5 fold |  | 10 fold | 
4 | human protein kinase C- (isoform letter lost in print) (from UniProt P17252 2-672) (enzyme) |  |  |  |  |  | 28 fold
